Measurements reported in patent US20240158517A1 (HIFIBIO HK, published 2024).
Positions count from the first letter of the chain named. Names may count otherwise.

T1: human CXCR5 (human, UniProt P32302 1-372)
T1 construct: whole, on cells; Always presented on cells; one entry is used for all cell lines; also called hCXCR5; C-X-C chemokine receptor type 5
T1 sequence (looked up): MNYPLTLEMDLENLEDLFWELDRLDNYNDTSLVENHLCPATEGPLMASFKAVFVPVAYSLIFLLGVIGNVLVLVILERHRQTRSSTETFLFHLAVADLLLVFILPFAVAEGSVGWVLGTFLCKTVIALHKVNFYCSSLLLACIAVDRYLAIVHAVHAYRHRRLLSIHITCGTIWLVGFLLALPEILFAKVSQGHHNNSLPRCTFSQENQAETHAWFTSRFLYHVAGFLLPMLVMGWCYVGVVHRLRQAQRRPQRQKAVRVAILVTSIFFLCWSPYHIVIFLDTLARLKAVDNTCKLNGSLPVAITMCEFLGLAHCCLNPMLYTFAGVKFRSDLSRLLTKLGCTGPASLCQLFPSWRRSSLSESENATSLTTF

T2: murine CXCR5 (mouse, UniProt Q04683 1-374)
T2 construct: whole, on cells; also called mouse CXCR5 ortholog
T2 sequence (looked up): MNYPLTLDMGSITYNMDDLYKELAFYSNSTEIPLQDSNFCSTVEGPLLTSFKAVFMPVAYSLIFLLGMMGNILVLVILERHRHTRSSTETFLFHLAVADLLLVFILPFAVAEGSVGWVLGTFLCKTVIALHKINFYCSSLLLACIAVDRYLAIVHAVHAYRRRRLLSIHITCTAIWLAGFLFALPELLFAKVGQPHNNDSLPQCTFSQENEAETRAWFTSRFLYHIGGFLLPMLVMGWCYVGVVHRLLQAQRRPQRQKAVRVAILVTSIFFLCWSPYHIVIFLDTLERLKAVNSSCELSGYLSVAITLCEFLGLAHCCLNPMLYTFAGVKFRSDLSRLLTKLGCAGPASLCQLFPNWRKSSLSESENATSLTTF

T3: human CXCR3 (human, UniProt P49682 1-368, limits assumed)
T3 construct: also called hCXCR3
T3 sequence (looked up): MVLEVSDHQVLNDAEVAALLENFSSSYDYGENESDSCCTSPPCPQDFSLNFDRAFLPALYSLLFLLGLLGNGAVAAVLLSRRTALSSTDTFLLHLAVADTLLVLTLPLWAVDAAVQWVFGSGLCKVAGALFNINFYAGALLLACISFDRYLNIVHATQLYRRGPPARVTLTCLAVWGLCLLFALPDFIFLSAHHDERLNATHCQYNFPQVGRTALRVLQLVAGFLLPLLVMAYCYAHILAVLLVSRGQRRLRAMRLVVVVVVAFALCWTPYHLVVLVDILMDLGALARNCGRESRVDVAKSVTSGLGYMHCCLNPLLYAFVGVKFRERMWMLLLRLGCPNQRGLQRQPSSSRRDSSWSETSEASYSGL

B1: HFB2-4hz38hG1DE (antibody, V domains shown)
VH: QVQLQESGPGLVKPSETLSLTCTVSGFSLTSYGVSWVRQPPGKGLEWIGVIWGDGSTNYNPSLKSRVTISKDTSKNQVSLKLSSVTAADTAVYYCARVVYWGQGTLVTVSS
VL: DIVMTQSPDSLAVSLGERATINCRSSKSLLHSNGKTYLYWFQQKPGQSPKLLLYRMSNLASGVPDRFSGSGSGTDFTLTISSLQAEDVAVYYCMQHLEYPYTFGQGTKLEIK
notes: Humanized (VH3/VL7) in hG1DE format
B2: HFB2-4hz37hG1DE (antibody, V domains shown)
VH: B1 VH
VL: EIVMTQSPATLSVSPGERATLSCRSSKSLLHSNGKTYLYWFQQKPGQAPRLLIYRMSNLASGIPARFSGSGSGTEFTLTISSVQSEDVAVYYCMQHLEYPYTFGQGTKLEIK
notes: Humanized (VH3/VL6) produced in hG1DE format (human IgG1, S239D/I332E)
B3: HFB2-4hz39hG1DE (antibody, V domains shown)
VH: B1 VH with E16G, T23A, V67L, T73K
VL: B2 VL
notes: Humanized (VH6/VL6) in hG1DE format
B4: HFB2-4hz42hG1DE (antibody, V domains shown)
VH: QVQLVQSGAEVKKPGASVKVSCKASGFSLTSYGVSWVRQAPGQGLEWMGVIWGDGSTNYAQKLQGRVTMTKDTSTSTAYMELRSLRSDDTAVYYCARVVYWGQGTLVTVSS
VL: B2 VL
notes: Humanized (VH10/VL6) in hG1DE format
B5: HFB2-4hz14-hG1DE (antibody, V domains shown)
VH: B1 VH
VL: DIVMTQSPLSLPVTPGEPASISCRSSQSLLHSNGYNYLYWFLQKPGQSPQLLIYRGSNRASGVPDRFSGSGSGTDFTLKISRVEAEDVGVYYCMQHLQYPYTFGGGTKVEIK
notes: Humanized (VH3/VL1b), human IgG1 with S239D/I332E (hG1DE)
B6: HFB2-4hz12-hG1DE (antibody, V domains shown)
VH: B1 VH
VL: DIQMTQSPSSLSASVGDRVTITCRSSKSLLHSNGKTYLYWFQQKPGKAPKLLIYRMSNLASGVPSRFSGSGSGTDFTLTISSLQPEDFATYYCMQHLEYPYTFGGGTKVEIK
notes: Humanized (VH3/VL4), human IgG1 with S239D/I332E (hG1DE); also called HFB2-4hz12hIgDE
B7: HFB2-4hz15-hG1DE (antibody, V domains shown)
VH: B1 VH
VL: B5 VL with A19I, I21L, Q27K, Y35K, N36T, I53L, G56M, R59L, Q98E, V109L
notes: Humanized (VH3/VL1c), human IgG1 with S239D/I332E (hG1DE)
B8: HFB2-6-hG1 (antibody, V domains shown)
VH: QIQLQQSGPELVEPGASVKLSCKASGYTFTDYTIHWVKQSPGQGLEWIGWIYPGSGNIKYNDKFKGKATMTADKSSSTAYMQLSSLTSEDSAVYFCARGLRREFAYWGQGTLVTVSA
VL: DIVMTQAAFSNPVTLGTSASISCRSSKSLLHSNGITYLYWYLQKPGQSPQLLIYQMSNLASGVPDRFSSSGSGTDFTLRISRVEAEDVGVYYCAQSLELPLTFGAGTKLELK
notes: Mouse-human chimeric antibody, human IgG1 constant region
B9: HFB2-4-hG1 (antibody, V domains shown)
VH: QVQLKESGPGLVAPSQSLSITCTVSGFSLTSYGVSWVRQPPGKGLEWLGVIWGDGSTNYHSGLISRLSISKDNSKSQVFLKLNSLQSDDTATYYCARVVYWGQGTLVTVSA
VL: DIVMTQAAPSVPVTPGESISISCRSSKSLLHSNGKTYLYWFLQRPGQSPQLLLYRMSNLASGVPDRFSGSGSGTAFTLRISRVEAEDVGVYYCMQHLEYPYTFGGGTKLEIK
notes: Mouse-human chimeric antibody, human IgG1 constant region; also called parental
B10: HFB2-VH8VL4 (antibody, V domains shown)
VH: QVQLVESGGGVVQPGRSLRLSCAVSGFSLTSYGVSWVRQAPGKGLEWLGVIWGDGSTNYHSGLISRLTISKDNSKNTVYLQMNSLRAEDTAVYYCARVVYWGQGTLVTVSS
VL: B6 VL
B11: HFB2-VH8VL6 (antibody, V domains shown)
VH: B10 VH
VL: B2 VL
B12: HFB2-4hz41hG1 (antibody, V domains shown)
VH: B10 VH
VL: B1 VL
notes: Humanized, human IgG1 (hG1); also called HFB2-VH8VL7
B13: HFB2-VH10VL4 (antibody, V domains shown)
VH: B4 VH
VL: B6 VL
B14: HFB2-VH6VL4 (antibody, V domains shown)
VH: B1 VH with E16G, T23A, V67L, T73K
VL: B6 VL
B15: HFB2-VH6VL7 (antibody, V domains shown)
VH: B1 VH with E16G, T23A, V67L, T73K
VL: B1 VL
B16: HFB2-VH10VL7 (antibody, V domains shown)
VH: B4 VH
VL: B1 VL

molecular target: T1, human CXCR5; test: flow cytometry on adherent DX002 cells expressing CXCR5, MFI

EC50 [nM]	Binder
0.0878	B1
0.0785	B2
0.232	B3
0.123	B4

molecular target: T1, human CXCR5; test: binding to hCXCR5, Exp 1 (assay not given)

EC50 [nM]	Binder
0.4	B5
1.2	B6
0.6	B7

molecular target: T2, murine CXCR5; test: flow cytometry on cells transiently transfected with murine CXCR5

binding result	Binder
no binding (tested: about 150 nM)	B8
no binding (tested: about 150 nM)	B9

molecular target: T1, human CXCR5; test: binding to DX002 cells expressing CXCR5

EC50 [nM]	Binder
0.106	B1
0.099	B2
0.26	B3
0.171	B4

molecular target: T1, human CXCR5; test: flow cytometry on an adherent stable cell line expressing hCXCR5, MFI normalized on the benchmark MFI
Method: In order to test the binding capacity to CXCR5, six chimeric monoclonal antibodies were tested in binding assay using adherent stable cell line expressing the target antigen hCXCR5.

EC50 [nM]	Binder
0.5	B8
0.924	B9

molecular target: T1, human CXCR5; test: flow cytometry on Raji cells, binding percentage, antibody at 1 nM and 0.1 nM
Method: Binding properties of these 36 humanized variants were tested in binding assay to Raji cells at two different concentrations, 1 nM and 0.1 nM.

binding result	Binder
binds	B10
binds	B11
binds	B12
binds	B13
binds	B14
binds	B15
binds	B16

molecular target: T3, human CXCR3; test: flow cytometry (MFI) on hCXCR3

binding result	Binder
no binding (tested: about 150 nM)	B8
no binding (tested: about 150 nM)	B9

molecular target: T1, human CXCR5; test: binding to hCXCR5, Exp 2 (assay not given)

EC50 [nM]	Binder
0.1	B5
0.3	B6
0.05	B7
